Reference: PMC3094545 (Structure (London, England : 1993), 2011)

Molecular target: the molecule itself
Assay: crystal structure

B1: cytoplasmic domain of ZntB from Salmonella enterica serovar Typhimurium (domain or fragment)
chain: MEAIKGSDVNVPDAVFAWLLDGRGGVKPLEDNDVIDSQHPCWLHLNYTHPDSARWLASTPLLPNNVRDALAGESSRPRVSRMGEGTLITLRCINGSTDERPDQLVAMRLYMDERFIVSTRQRKVLALDDVVSDLQEGTGPVDCGGWLVDVCDALTDHASEFIEELHDKIIDLEDNLLDQQIPPRGFLALLRKQLIVMRRYMAPQRDVYARLASERLPWMSDDHRRRMQDIADRLGRGLDEIDACIARTGIMADEIAQVMQES
**Q.** For B1, which “stoichiometry N” value is on record?
**A.** 5
